Patent US20220365073A1 (TECHNION RESEARCH AND DEVELOPMENT FOUNDATION, published 2022)

Molecular target: Ubiquitin-B+1 (UBB+1), untagged, expressed in HEK293FT cells
Assay: co-IP with anti-UBB+1 antibody from HEK293FT cells, immunoblot; MS/MS of co-purified proteins

binding result: binds
B1: UCH-L1 (Ubiquitin C-terminal hydrolase L1), endogenous in HEK293FT cells (enzyme, UniProt P09936 1-220, looked up)
chain: MQLKPMEINPEMLNKVLSRLGVAGQWRFVDVLGLEEESLGSVPAPACALLLLFPLTAQHENFRKKQIEELKGQEVSPKVYFMKQTIGNSCGTIGLIHAVANNQDKLGFEDGSVLKQFLSETEKMSPEDRAKCFEKNEAIQAAHDAVAQEGQCRVDDKVNFHFILFNNVDGHLYELDGRMPFPVNHGASSEDTLLKDAAKVCREFTEREQGEVRFSAVALC
notes: Endogenous protein in the lysate of HEK293FT (human) cells; also called UCL-H1; endogenous UCH-L1
